# Assay results published in paper PMC3835729.
# Tested on: Nc1ncnc2c1ncn2[C@@H]1O[C@H](COP(=O)(O)NCCc2c[nH]c3ccccc23)[C@@H](O)[C@H]1O
# Assay: purified protein
# Conditions: 20 mM HEPES, 1 mM MgCl2, pH 7.2, 25 °C
Substance,Km [µM],kcat [s⁻¹],kcat/Km [M⁻¹ s⁻¹]
human histidine triad nucleotide binding protein 1 (hHint1) (Homo sapiens),0.13 ± 0.02,2.1 ± 0.1,1.5e+07 ± 3e+06
human histidine triad nucleotide binding protein 1 (hHint1) (Homo sapiens; H114A),0.27 ± 0.05,–,–
human histidine triad nucleotide binding protein 1 (hHint1) (Homo sapiens; H51A),1.8 ± 0.2,0.53 ± 0.02,300000 ± 40000
